Data on 20 molecules can be found in patent publication US20240400654A1.

Assay [1] concerns the target HRgpA-6H (Porphyromonas gingivalis) (UniProt P28784). The assay is described as follows: ELISA; non-related FASEBA supernatant on HRgpA-6H coat; secondary Anti-BSA (HRP).
The target is the same in assay [2]. The assay is described as follows: ELISA; non-related FASEBA supernatant on HRgpA-6H coat; secondary goat anti-human IgG (H+L) HRP. In general terms: ELISA stands for enzyme-linked immunosorbent assay.
For assay [3] the target is unchanged. The assay is described as follows: ELISA; non-related FASEBA supernatant on HRgpA-6H coat; secondary goat anti-human IgG F(ab')2 HRP.
For assay [4] the target is unchanged. The assay is described as follows: ELISA; non-related FASEBA supernatant on HRgpA-6H coat; secondary mouse anti-human IgG F(ab')2 HRP.
The target in assay [5] is whole P. gingivalis cells (strain W83) (Porphyromonas gingivalis).
Assay [6] has the same target. The assay can be described thus: gold-labelled KB001, scanning electron microscopy, W83.
Assay [7] concerns the target HRgpA-6H (Porphyromonas gingivalis) (UniProt P28784). The assay is described as follows: SPR Biacore 8K, 25 C; table lists HRgpA-6H as ligand, antibody as analyte. (In general: SPR reads the build-up and loss of mass on a sensor chip optically.)
Assay [8] shares this target. The assay is described as follows: SPR Biacore 8K, 25 C; HRGPA-6H immobilized on CM5, KB001-WT-Ab as analyte.
The target is the same in assay [9]. The assay can be described thus: ELISA, FASEBA screening, coated HRgpA-6H 0.0625 ug/ml.
Assay [10] has the same target. The assay can be described thus: ELISA, FASEBA screening, coated HRgpA-6H; variant OD over parental WT Fab OD.
For assay [11] the target is unchanged. The assay is described as follows: ELISA, FASEBA screening, coated HRgpA-6H; library clone found WT, OD over parental WT Fab OD.
The target is the same in assay [12]. The assay can be described thus: SPR Biacore 8K; table lists HRgpA-6H as ligand, antibody as analyte.

Numbering of substitutions follows the chain as printed. Numbers in names are those of the source. Where “and” joins values, the source holds several entries; their conditions need not be identical. Identical values can stand only once.

Take “non-related FASEBA supernatant (NC) (Fab)”: the OD450 worked out at 1.09 in assay [1]; 1.15 in [2] (coating antigen 1 µg/ml); 0.736 in assay [2] (coating antigen 2 µg/ml); 0.672 in assay [3]; 0.552 in assay [4] (coating antigen 1 µg/ml); 0.288 in [4] (coating antigen 2 µg/ml).

B1: KB001 (antibody, V domains shown)
VH: EVQLKQSGPGLVAPSQSLSITCTVSGFSLSIYSVHWVRQPPGKGLEWLGMIWGGGSSDYNSALKSRLSISKDNSKSQVFLKMNSLQTDDTAMYYCARNGNFYAMDYWGQGTSVTVSS
VL: QIVLTQSPAIMSASLGERVTMTCTASSSVSSSFLHWYQQKPGSSPQLWIYSTSNLASGVPARFSGSGSGTSYSLTISSMEAEDAATYYCHQYHHSPYIYTFGGGTKLEIKR
For the molecule B1, in assay [5], the Kd (in general, the equilibrium constant for the complex coming apart) came to 11.4 nM; the Response was 0.297 and 0.216 and 0.186; the off-rate constant (koff) (in general, the first-order rate constant of dissociation) was 0.000219 s⁻¹; the association rate constant (kon) (as a rule, the second-order rate constant of association) came out at 19200 M⁻¹ s⁻¹. Moreover, the IgG molecules bound per bacterium (molecules per bacterium) in [6] is 60 and 80. Moreover, in assay [7], the Kd came out at 2.02 nM, the koff was 8.62e-05 s⁻¹ and the on-rate (kon) stood at 42600 M⁻¹ s⁻¹. Also, in assay [8], the dissociation constant Kd came out at 2.02 nM, the dissociation rate constant (koff) is 8.62e-05 s⁻¹ and the kon was 42600 M⁻¹ s⁻¹.

B2: KB001 parental mouse Fab FASEBA variant VH Y106I (Fab, V domains shown)
VH: B1 VH with Y106I
VL: QIVLTQSPAIMSASLGERVTMTCTASSSVSSSFLHWYQQKPGSSPQLWIYSTSNLASGVPARFSGSGSGTSYSLTISSMEAEDAATYYCHQYHHSPYIYTFGGGTKLEIK
Regarding B2, in [9], the OD450 nm was 0.73 and 0.728 and 0.764. The Ratio OD(Variant)/OD(WT) in assay [10] was 0.949 and 0.947 and 0.993.

B3: KB001 parental mouse Fab FASEBA variant VH Y106Q (Fab, V domains shown)
VH: B1 VH with Y106Q
VL: B2 VL
In [9], B3 showed an OD450 nm of 0.768. Further, in assay [10], the Ratio OD(Variant)/OD(WT) is 0.999.

B4: KB001 parental mouse Fab FASEBA variant VH Y106K (Fab, V domains shown)
VH: B1 VH with Y106K
VL: B2 VL
The molecule B4 had an OD450 nm in assay [9] of 0.767. For the same molecule, the Ratio OD(Variant)/OD(WT) in assay [10] worked out at 0.997.

B5: KB001 parental mouse Fab FASEBA variant VH M104V (Fab, V domains shown)
VH: B1 VH with M104V
VL: B2 VL
Consider B5, for which the OD450 nm in [9] came to 0.654. The Ratio OD(Variant)/OD(WT) in assay [10] amounted to 0.85.

B6: KB001 parental mouse Fab FASEBA variant VH Y106W (Fab, V domains shown)
VH: B1 VH with Y106W
VL: B2 VL
Take B6: the OD450 nm in assay [9] was 0.733 and 0.748. For the same molecule, in assay [10], the Ratio OD(Variant)/OD(WT) is 0.953 and 0.973.

B7: KB001 parental mouse Fab FASEBA variant VH M104L (Fab, V domains shown)
VH: B1 VH with M104L
VL: B2 VL
As to B7, the OD450 nm in assay [9] stood at 0.786. Moreover, the Ratio OD(Variant)/OD(WT) in assay [10] was 0.904.

B8: KB001 parental mouse Fab FASEBA (WT) (Fab, V domains shown)
VH: B1 VH
VL: B2 VL
In [9], B8 showed an OD450 nm of 0.831. Also, the Ratio OD(Variant)/OD(WT) in assay [11] worked out at 0.956.

B9: KB001 parental mouse Fab FASEBA variant VH Y106D (Fab, V domains shown)
VH: B1 VH with Y106D
VL: B2 VL
As to B9, the OD450 nm in assay [9] worked out at 0.675. Further, the Ratio OD(Variant)/OD(WT) in [10] came to 0.878.

B10: KB001 parental mouse Fab FASEBA variant VH A103C (Fab, V domains shown)
VH: B1 VH with A103C
VL: B2 VL
In assay [9], B10 displayed an OD450 nm of 0.77. The Ratio OD(Variant)/OD(WT) in assay [10] amounted to 0.893.

B11: KB001 parental mouse Fab FASEBA variant VH Y106H (Fab, V domains shown)
VH: B1 VH with Y106H
VL: B2 VL
Consider B11, for which the OD450 nm in [9] was 0.722. Also, the Ratio OD(Variant)/OD(WT) in assay [10] worked out at 0.939.

B12: H8 (antibody, V domains shown)
VH: QVQLQESGPGLVKPSETLSLTCTVSGFSLSIYSVHWIRQPPGKGLEWIGMIWGGGSSDYNSALKSRLTISKDTSKNQVSLKLSSVTAADTAVYYCARNGNFYAMDYWGQGTLVTVSS
VL: EIVLTQSPGTLSLSPGERATLSCTASSSVSSSFLHWYQQKPGQAPQLWIYSTSNLASGIPARFSGSGSGTDYTLTISRLEPEDFATYYCHQYHHSPYIYTFGGGTKLEIK
With B12, in assay [7], the Kd was determined as 1.33 nM, the koff is 6.7e-05 s⁻¹ and the association rate constant (kon) worked out at 50300 M⁻¹ s⁻¹.

B13: H14 (antibody, V domains shown)
VH: B12 VH with I48L, V92M
VL: B12 VL with A61D, T86V
In [7], B13 gave a dissociation constant Kd of 0.939 nM, a koff of 4.89e-05 s⁻¹ and a kon of 52100 M⁻¹ s⁻¹.

B14: H7 K222A (antibody, V domains shown)
VH: B12 VH
VL: B12 VL with A61D
In assay [12], B14 showed a Kd of 0.795 nM, a koff of 4.36e-05 s⁻¹ and an association rate constant (kon) of 54800 M⁻¹ s⁻¹.

B15: H5 (antibody, V domains shown)
VH: B12 VH
VL: B12 VL with Q46R, W48L, A61D, Y72F, T86V
Turning to B15, in assay [7], the dissociation constant (Kd) was found to be 0.825 nM, the dissociation rate constant (koff) was determined as 4.5e-05 s⁻¹ and the kon amounted to 54500 M⁻¹ s⁻¹.

B16: H14 K222A (antibody, V domains shown)
VH: B12 VH with I48L, V92M
VL: B12 VL with A61D, T86V
For the molecule B16, in assay [12], the Kd was found to be 1.3 nM, the dissociation rate constant (koff) was 6.53e-05 s⁻¹ and the on-rate constant (kon) was 50100 M⁻¹ s⁻¹.

B17: H5 K222A (antibody, V domains shown)
VH: B12 VH
VL: B12 VL with Q46R, W48L, A61D, Y72F, T86V
In assay [12], B17 yielded a dissociation constant Kd of 0.068 nM, a koff of 3.42e-06 s⁻¹ and an association rate constant (kon) of 50200 M⁻¹ s⁻¹.

B18: H8 K222A (antibody, V domains shown)
VH: B12 VH
VL: B12 VL
As to B18, in [12], the Kd came to 0.57 nM, the koff amounted to 3.3e-05 s⁻¹ and the on-rate (kon) was 58000 M⁻¹ s⁻¹.

B19: H7 (antibody, V domains shown)
VH: B12 VH
VL: B12 VL with A61D
In assay [7], B19 displayed a Kd of 0.258 nM, a koff of 1.07e-05 s⁻¹ and a kon of 41400 M⁻¹ s⁻¹.
